The data set concerns the target alpha-thrombin (biotinylated, thrombin-BFPRck) (human, UniProt P00734;P00734 328-363;364-622). In words: BLI; 2 mM Ca2+; TBB: 20 mM HEPES pH 7.4, 150 mM NaCl, 2 mM CaCl2; room temperature (cell binding); BLI in TBB.

B1: 5-12mini (structured_RNA)
RNA: GGGAGCUCAGAAUAAACGCUCAAGUUACUGAGCUCAGCAUGAGGCCCGGAUCCGGC
modifications: 2'-fluoro pyrimidines
For orientation: Kd means the constant that tells how readily two partners part at equilibrium. B1 gave a dissociation constant Kd of around 5 nM.
